In US20160244499A1 one finds Kd data, which are given here for one molecule.

This assay has as its target C-terminally biotinylated γc ectodomain (human) (UniProt P31785). Put plainly: site 2 affinity of free super-4 for γc; method not stated.

B1: super-4 (IL-4 RGA), free, not bound to IL-4Rα (ligand)
chain: HKCDITLQEIIKTLNSLTEQKTLCTELTVTDIFAASKNTTEKETFCRAATVLRQFYSHHEKDTRCLGATAQQFHRHKQLIRFLKRLDRNLWGLAGLNSCPVKEANQSTLENFLERLRVIMQSKWFKCGAHHHHHH
By Kd is commonly meant the constant that tells how readily two partners part at equilibrium. Low readings indicate higher affinity, high ones lower affinity. In turn, B1 had a Kd of 300 nM.
